± gives the uncertainty stated by the source.

B1: POU domain, class 2, transcription factor 3, residues 186 to 260; numbered along this chain, Q9UKI9 (parent)
chain: SDLEELEKFAKTFKQRRIKLGFTQGDVGLAMGKLYGNDFSQTTISRFEALNLSFKNMCKLKPLLEKWLNDAESSP

This series covers variants of B1. Kind of series: abundance fitness (aPCA) (normalised: wild type 0, dead -1); higher = more abundant; growth selection in yeast, the domain comes from the species named. The note with it: Homo sapiens.
SDLEELEKFAKTFKQRRIKLGFTQGDVGLAMGKLYGNDFSQTTISRFEALNLSFKNMCKLEPLLEKWLNDAESSP: the abundance fitness was -0.273 ± 0.051.
With SDLEELEKFAKTFKQRRIKLGFTQGDVGLAMGKLYGNDFSQTTISRFEALNLSFKNMCKLSPLLEKWLNDAESSP, the abundance fitness is -0.153 ± 0.041.
The figure for SDLEELEKFAKTFKQRRIKLGFTQGDVGLAMGKLYGNDFSQTTISRFEALNLSFKNMCKLIPLLEKWLNDAESSP is -0.128 ± 0.063; for SDLEELEKFAKTFKQRRIKLGFTQGDVGLAMGKLYGNDFSQTTISRFEALNLSFKNMCKLMPLLEKWLNDAESSP it is -0.133 ± 0.045; for SDLEELEKFAKTFKQRRIKLGFTQGDVGLAMGKLYGNDFSQTTISRFEALNLSFKNMCKLNPLLEKWLNDAESSP it is -0.628 ± 0.14.
The figure for SDLEELEKFAKTFKQRRIKLGFTQGDVGLAMGKLYGNDFSQTTISRFEALNLSFKNMCKLYPLLEKWLNDAESSP is -0.108 ± 0.08.
The figure for SDLEELEKFAKTFKQRRIKLGFTQGDVGLAMGKLYGNDFSQTTISRFEALNLSFKNMCKLDPLLEKWLNDAESSP is -0.898 ± 0.2; for SDLEELEKFAKTFKQRRIKLGFTQGDVGLAMGKLYGNDFSQTTISRFEALNLSFKNMCKLHPLLEKWLNDAESSP it is -0.183 ± 0.094.
As for SDLEELEKFAKTFKQRRIKLGFTQGDVGLAMGKLYGNDFSQTTISRFEALNLSFKNMCKLGPLLEKWLNDAESSP, the abundance fitness was -0.241 ± 0.032.
The figure for SDLEELEKFAKTFKQRRIKLGFTQGDVGLAMGKLYGNDFSQTTISRFEALNLSFKNMCKLTPLLEKWLNDAESSP is -0.254 ± 0.05; for SDLEELEKFAKTFKQRRIKLGFTQGDVGLAMGKLYGNDFSQTTISRFEALNLSFKNMCKLWPLLEKWLNDAESSP it is -0.181 ± 0.041.
As for SDLEELEKFAKTFKQRRIKLGFTQGDVGLAMGKLYGNDFSQTTISRFEALNLSFKNMCKLAPLLEKWLNDAESSP, the abundance fitness was -0.05 ± 0.039.
As for SDLEELEKFAKTFKQRRIKLGFTQGDVGLAMGKLYGNDFSQTTISRFEALNLSFKNMCKLRPLLEKWLNDAESSP, the abundance fitness was -0.02 ± 0.032.
In the case of SDLEELEKFAKTFKQRRIKLGFTQGDVGLAMGKLYGNDFSQTTISRFEALNLSFKNMCKLQPLLEKWLNDAESSP it was -0.017 ± 0.041; in that of SDLEELEKFAKTFKQRRIKLGFTQGDVGLAMGKLYGNDFSQTTISRFEALNLSFKNMCKLCPLLEKWLNDAESSP, -0.194 ± 0.083; in that of SDLEELEKFAKTFKQRRIKLGFTQGDVGLAMGKLYGNDFSQTTISRFEALNLSFKNMCKLFPLLEKWLNDAESSP, -0.324 ± 0.092.
Turning to SDLEELEKFAKTFKQRRIKLGFTQGDVGLAMGKLYGNDFSQTTISRFEALNLSFKNMCKLVPLLEKWLNDAESSP, the abundance fitness is -0.065 ± 0.036.
The figure for SDLEELEKFAKTFKQRRIKLGFTQGDVGLAMGKLYGNDFSQTTISRFEALNLSFKNMCKLPPLLEKWLNDAESSP is -0.829 ± 0.15; for SDLEELEKFAKTFKQRRIKLGFTQGDVGLAMGKLYGNDFSQTTISRFEALNLSFKNMCKLLPLLEKWLNDAESSP it is -0.198 ± 0.041; for SDLEELEKFAKTFKQRRIKLGFTQGDVGLAMGKLYGNDFSQTTISRFEALNLSFKNMCKLKPLEEKWLNDAESSP it is -0.888 ± 0.11.
SDLEELEKFAKTFKQRRIKLGFTQGDVGLAMGKLYGNDFSQTTISRFEALNLSFKNMCKLKPLPEKWLNDAESSP: the abundance fitness is -0.802 ± 0.1.
The figure for SDLEELEKFAKTFKQRRIKLGFTQGDVGLAMGKLYGNDFSQTTISRFEALNLSFKNMCKLKPLFEKWLNDAESSP is -0.135 ± 0.077.
In the case of SDLEELEKFAKTFKQRRIKLGFTQGDVGLAMGKLYGNDFSQTTISRFEALNLSFKNMCKLKPLGEKWLNDAESSP, the abundance fitness was -0.784 ± 0.054.
In the case of SDLEELEKFAKTFKQRRIKLGFTQGDVGLAMGKLYGNDFSQTTISRFEALNLSFKNMCKLKPLDEKWLNDAESSP it was -0.557 ± 0.16.
In the case of SDLEELEKFAKTFKQRRIKLGFTQGDVGLAMGKLYGNDFSQTTISRFEALNLSFKNMCKLKPLIEKWLNDAESSP it was -0.224 ± 0.063; in that of SDLEELEKFAKTFKQRRIKLGFTQGDVGLAMGKLYGNDFSQTTISRFEALNLSFKNMCKLKPLNEKWLNDAESSP, -0.776 ± 0.36.
As for SDLEELEKFAKTFKQRRIKLGFTQGDVGLAMGKLYGNDFSQTTISRFEALNLSFKNMCKLKPLCEKWLNDAESSP, the abundance fitness was -0.148 ± 0.055.
The figure for SDLEELEKFAKTFKQRRIKLGFTQGDVGLAMGKLYGNDFSQTTISRFEALNLSFKNMCKLKPLKEKWLNDAESSP is -1.01 ± 0.14; for SDLEELEKFAKTFKQRRIKLGFTQGDVGLAMGKLYGNDFSQTTISRFEALNLSFKNMCKTKPLLEKWLNDAESSP it is -0.039 ± 0.04.
Regarding SDLEELEKFAKTFKQRRIKLGFTQGDVGLAMGKLYGNDFSQTTISRFEALNLSFKNMCKWKPLLEKWLNDAESSP, the abundance fitness was -0.074 ± 0.032.
For the variant SDLEELEKFAKTFKQRRIKLGFTQGDVGLAMGKLYGNDFSQTTISRFEALNLSFKNMCKGKPLLEKWLNDAESSP, the abundance fitness is -0.79 ± 0.055.
In the case of SDLEELEKFAKTFKQRRIKLGFTQGDVGLAMGKLYGNDFSQTTISRFEALNLSFKNMCKPKPLLEKWLNDAESSP it was -0.855 ± 0.14; in that of SDLEELEKFAKTFKQRRIKLGFTQGDVGLAMGKLYGNDFSQTTISRFEALNLSFKNMCKKKPLLEKWLNDAESSP, -0.106 ± 0.058; in that of SDLEELEKFAKTFKQRRIKLGFTQGDVGLAMGKLYGNDFSQTTISRFEALNLSFKNMCKHKPLLEKWLNDAESSP, -0.285 ± 0.14.
The figure for SDLEELEKFAKTFKQRRIKLGFTQGDVGLAMGKLYGNDFSQTTISRFEALNLSFKNMCKYKPLLEKWLNDAESSP is -0.117 ± 0.052; for SDLEELEKFAKTFKQRRIKLGFTQGDVGLAMGKLYGNDFSQTTISRFEALNLSFKNMCKMKPLLEKWLNDAESSP it is -0.062 ± 0.055.
